The text below walks through data of a protein production outcome set (Wang et al. 2014).

The nature of the series: label from the status in PepcDB records.
With “MSMLANFDFASFFAVAAAIVIGLYVVLDGFDLGVGILFPFAPRVSDRDAMMATLEPFWDGNETWLVLGGMVLLGAFPLAFAILLPAFYVPLCLMLFGLVIRGVAFEFRSQGGRFQIVWSATFAAGSFIAAFCQGAVLGAFVGRSITVSDGAFAGGPFDWLGLFSIATGLGVVAAYGLLGACWLVWKTSGSTQNFGRELMLPTLLCAGAAIVLISVWTPFAKPQIAERWFAWPDALLLAPLPIIAVLAGIGILLTRWSEREWAPLALSLLLFVTSLAGLGASVWPEAIPGVMTIWQASSMHRTQVIVAGAVVIIGPIILAYIGYGYWLFRGKTKPVPEFPPR”, the protein production entry is recorded as “failed”.
Regarding “ACKVLYSLGELNERFVPKTLKERVASIADVHFEHWNKYGDSVTATVNKADKSKDRTYKTECPLEFYDALPRVGEICYAYEIFLEPQFESCEYTEHMYLNLQTPRNYAILLRNKLPRLAEMPLFSNQGKLHVRVANAPLEVIIQNSEQLELLH”, the protein production result is listed as “failed”.
For “MFLVCGEALFDIFTRADDGGSLNRLGFDAIAGGSPFNVAIGLRRLGVEAAFFAGLSTDYLGRRLRAVLEQETVNAEHLIEFDAPTTLAMVAVGSDGSPTYSFRGDGCADRQLRLEHLPELDERVRGIHVGSFSLVVQPIADTLLALVARESARRLISLDPNVRLNPAPDIQRWRTQIAAFAEHAHLIKVSDEDLHLLYPDSDPQQIAEGWLGKRTQLVIVTRGTQGASVFTRQHGTWSVPAKTVVTADTVGAGDTFQAALLTFLSERQLDTPQGLSTLSRETLDEMLNFAVGAAALTCTKVGPDLPYRHQLG”, the protein production entry is listed as “failed”.
“MPDPAAPGTLRPGGRTARIREAVLLAAGDALAADGFDALDLGEIARRAGVGKTTVYRRWGTPGGLAADLLADMAEQSLPRADTGALEEDLRANARLVVRTLDDPRQGRLFRALIAASLCNEQAAEALHRFYAVRVDEWAGCVRDAVARGEVPDGTDPHGVVAAVSAPLYYALLNTGRSLTEADADRAARAASTAARAGVWVTG”: the protein production result is listed as “not failed”.
With “MYIIFALLAFSALILVHELGHFIVAKLNGIYVEEFAIGMGPKLFGVKVGETEYNLRILPFGGFVKMLGEEDESDDSGSLNAKTPIQRILVMGAGAFMNYVLALIIFIGLAMSSGFAENKVASVVPNSPAQEIGIEQGDEFLKIDGNKIHTTDDFRMGLALAKGNPVELEIKRGNDVLTKTVQPILNESGMYQVGISYALVEKPTLLQGIKQGFNETRSLVSQSFIALKTIVTGEANLKTDVGGPVTIIKMSGQAAKAGANTLLWFMAFLSVQLAVFNLLPFPALDGGRIFIELIQMIIRKEIPAKYIEAVNTVGFMLLMGLMVLVTIKDIIFPIL”, the protein production entry is reported as “failed”.
As to “MITVVGTGTGAPLSADAARALAGAGLVVGGRRHLAAAALPDGAERIVLGPLAPALDAIEAALEKQRRVVVLASGDPGFFGIVRALAERFGAERLDVRPGVSSVATAFARLGLPWDDAVVVSAHGRDLRTALNVCRSRPKVAVLTGPGAGPAELGAALAHGFGARVLVVASALGDPEHERVERVTPAEAAARDWGTAVSVVLCLDASRALAPVRTVAGPPAGPARWALEEGDFAHRDSMITKFEVRALALARLGPRLGDLVWDVGAGSGSVAVECARLGAAVTAVEKTLDGVERIHANARAHGVDVHVVHGAAPDALTALPDPDAVFIGGGGRELPALVTACARRARRTVVVAMAALDRVPAVREALTGAGFGCDGVLLQSSRLAPLPGDVTRLAATNPVFLLWGARPPARTEGALQ”, the protein production result is reported as “failed”.
As to “MKMKHAFGPIILACVLFFIIILIPSKSLVSLISDKKVEDAATSLQKEKLQSVFLQQKMLENSQYLPMYGSSEFLRMDAYHPSNYFKVNPAGFTPFLIGTGGTQSLAHILNMTSTMDELEGKKVVFVLSPQWFTKTGVSQGDFTNNFSKQQAYHFIFNDKINPEMKKQIAKRLLDYKVVQEDDILKNSLEGIVYNDSKHNIKAGLVKPLAYMHRNILDHRDLFNSLFKIEPMKEKTNIGLRSISWEDARKHAEQEGKAESTTNTFGIENPYYHKNNLKKKLKGLKNFRANETYDESPEYDDLQIILELFKEKNVKPLFISVPVNGPWYDYTGFPKERREVYYKKVREQVEKAGYPVIDFSGHEYDKYFLKDTIHLGWKGWIYFDEAVQKFYSEKLEHHHHHH”, the protein production entry is “not failed”.
Turning to “MDLIEPAVRVFLGVFFLMIGLQFAARTLGLYSRLGFSHINYGKTGTATWWHRHTFNLFRAAILLMCLARIWVDLDAWLGVFPLLYHWPVLLAGAVLLLVSYTSVNYLQAYMHEDWRSGIDDHHGSGHLLTDGPFGRSRNPLFLAVMTGQLGFFLALPSVFSLVCLVTGVLVIMRQAREEEKALAKRFGEQYEAYCKRVPRWF”, the protein production entry was “failed”.
Turning to “MKLLIISDGHGDLEKLKKIKPVADGVDALIFGGDFAAFKKIETGAPFLNELLKIHKNIFAVLGNCDEPEFEKKLKDASVSITGEVKNFEGLIFAGSGGGSKFTGTTPYERTDEELVKDLTDAFEKANITAAGNLVLVCHNPPHGAKVDKVAPMVHVGSKGITAFIEKHKPLLVVSGHIHESFAVDKIGETVLVNPGALMEGRYALAEITKNEKGFKVSVELKTLD”, the protein production result is “failed”.
In the case of “MTTPNFELYGYFRSSCSGRLRIAFHLKSIPYTRHPVNLLKGEQHSDTYKSLNPTNTVPLLVVSNINNTVSPSSASFSIGQSLAALEYLEEALPTNARPLLPPISNPVARAHVRTICNIIACDVQPVTNLKIQKKVKALDGDPTVWSRDLATQGFGAVEKLLELSAGRFCVGDEITLADVCLVPAVWAAERVGMDLARFPITKRVFEEMLKEEAVQKAHWQKQEDTPEDLRA” it was “not failed”; in that of “MKIKATIERVPGGMMIIPLFLGAALNTFAPGTAEFFGGFTGALITGTLPILGVFIFCVGATIDFRSSGYIARKGITLLLGKIGFAALLGVIAAQFIPDDGIQSGFFAGLSVLAIVAVMNETNGGLYLALMNHMGRKEDAGAFAFISTESGPFMTMVTFGVTGLAAFPWETLAATVIPFLLGCILGNLDHDLRDLFSKVVPAIIPFFAFSLGNTLNFGMLIQSGLLGIFIGVSVVILSGSSLFLLDRFIARGDGVAGVAASSTAGAAVAVPYALAEANASFAPVAESATAIIATSVIVTSLLTPLATVWVDKKIKQKKRRTPPPKNQMTIN”, “failed”; in that of “MTAPASSLDRFFGLRARGTTVRREILAGTTTFMTMAYILFVNPEILGSAAGAGHFAAILTSTALVAAVMTAAMGLFANLPLALASGMGLNAVVAFGLVLGKKLTYPQAMGVIVAEGVLITLLVATGLRQAVVRAVPMTLKRAIGIGIGLFLAIIGFKAAGFISAGGALLQLGPEGAAGRLTGFPVVLFALTLVFTAWLVSRGVRGALLIGIAVSTAVAVTAKAAFGGAGFAPHVANLPSSIFGLPDFSMLGQVDFSFVAVLGPLAASLAVFSIMLSDFFDTVGTVVAVGQEAKYLDEQGNFPRASTVLMVDSLAAIAGGLAGASSATTYVESAAGAASGGRTGLTSVTTAALFALCLFISPLAGIVPPQATGAVLVLVGYMMMRDVGAIAWDDPSESIPAFLTVTVMPFTYSITNGIGAGFVSYVLLKLAGGKAREVHPLMIGASVAFVVYFAIGG”, “failed”.
For the sequence “MHTPTAVLRPADFLAPIVAALISVLVNYGGTFVLVFQAAELAGLSAAQTTSWVWAVSIGVGVTGIALSWRYREPIITAWSTPGVAFLATVMPFTPYGEVIGAYLAAALGFVVLGLSGAFEKLVRMIPAGIAAGLLAGILLQFGINAFGGASADPLLVIALLVSYALLKRYTSRFAVVGILVIGLGLLAAQQRVDFAALHLSLAAPVFEMPRFSLHAMLGVALPLFVITLTGQYMPGMLVLRNDGFKTSANPILVATGLGSLVMAPFGAHTFNVAAITAAICTGRDAHEDPRKRYIAGLACGVFYILVGLFGVTLATLFMVLPKTFITTLAGLALLGTIGGSLASAMADARTRETALITFLATAANVTLLGVGGAFWGLVAGLAAHGLIHFRQPEPAAARPALLSPTSQDTR”, the protein production result is listed as “failed”.
Turning to “SSAQFDHVTVIKKSNVYFGGLCISHTVQFEDGTKKTLGVILPTEQPLTFETHVPERMEIISGECRVKIADSTESELFRAGQSFYVPGNSLFKIETDEVLDYVCHLE”, the protein production result is “failed”.
As to “MRKRARIIYNPTSGKELFKRELPDALIKLEKAGYETSAYATEKIGDATLEAERAMHENYDVLIAAGGDGTLNEVVNGIAEKPNRPKLGVIPMGTVNDFGRALHIPNDIMGALDVIIEGHSTKVDIGKMNNRY”, the protein production entry is recorded as “failed”.
